Reference: article PMC2949298 (Nature structural & molecular biology, 2010)

Legend:
Assay in all cases: SPR
[1] = target: CAP210–sCD4 complex (core CAP210 gp120 with sCD4) (HIV-1 clade C CAP210.2.00.E8 gp120; …, strain)
[2] = target: soluble CD4 (domains 1 and 2 from human CD4) (human)
[3] = target: UC1_(Full-length) (V1V2-containing UC1 gp120, HIV-2) with sCD4 (HIV-2 isolate UC1 gp120; human CD4, UniProt Q76638;PDB, strain)

B1: 21c Fab (Fab, V domains shown)
VH: QVQVVQSGAEVRKPGASVKVSCKVSGFTLTGLSIHWVRQAPGKGLEWMGGFGPEENEIIYAQKFQGRVSMTEDTSTNTAYMELSSLRSEDTAVYYCATGGNYYNLWTGYYPLAYWGQGTLVTVSS
VL: QSVLTQPPSVSAAPGQKVTISCSGSSSNIGKNYVSWYQQLPGAAPKLLIFDDTQRPSGIPDRFSGSKSGTSATLAITGLQTGDEADYYCGTWDSSLSTGQLFGGGTKLTVL
Kd [1]: 1600 nM
Kd [2]: > 100 µM
binding result [3]: binds
